test system: K4 kissing-loop RNA reporter; assay: apparent KD of K4 kissing-loop reporter; higher = weaker reporter binding; details: Eterna round: R107; input ligand: theophylline 20 uM
Description: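 RNA-MaP round R107: designed RNA switches with theophylline, tryptophan, arginine or FMN aptamers are transcribed on-chip within common flanks. They are titrated with a labelled K4 kissing-loop RNA reporter in RNA-MaP buffer (100 mM Tris pH 7.5, 80 mM KCl, 4 mM MgCl2), without ligand or with the indicated ligand. Median apparent KD per design.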
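Note: bound reporter read as fluorescence of individual clusters on recovered sequencing chips by microscopy, with normalized cluster intensities fitted with a binding model.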

Compared with “UAAUUUAUGUCUUUAAUAUAAUUUUCAGAUACCAGUGAUUAUUAACACCCUUGGCAGCUGUGUAGAGUGAUGUUCUCAUGCUUAA [#07 K4 Theophylline A Exclusion]”, “GGAUAGGAUAGAGGAUAUGGCUUACGCAGAAAUAACUUAUUGUGUAAAUCCAUAGGGAGUGAUGUUCCAGAAGGCUGUCCUAUCG [MatMod 17 - Jieux - Exclusion - FMN B]” is 1.5-fold lower in “apparent KD of K4 kissing-loop reporter” value: 373 nM for the first, 244 nM for the second.

Compared with “UUUUAAUGCAGUGAUGUUGCUAAUAAAACAGAGGAUAUGCAUGGAAGCAGAAGGCUGAUAUAUUAUACUUUAAUAUAUUAUAUUU [JR_SSFMNA_Sub011]”, “CGUUUAUAGGAGGAUACCAGUACGGAUAAAGUACGUUAAUAGUAGAGUGAUGUUCUAAAGUACCCUUGGCAGCUUAGAGUGAGUG [ExTheophylB.N]” is 1.6-fold lower in “apparent KD of K4 kissing-loop reporter” value: 188 nM for the first, 121 nM for the second.

Going from “GAUGAAUGCGGAAGGAGCGAGUUUUUGGGAGUGAUGUUCCCUGCAUAUGCACGUGGGAAAGCUCAGGUAGGUCGCCGCGCUUGUU [Same State Arginine B GF 28]” to “UUGGCUGGACGGGAUACCAGCCAAAUCGUGUGCUUAGGAUGUCUAAGAGCCAGUGAUGUUGGCCCUUGGCAGCCCUCCUAGCUUG [Ordigear]”, the “apparent KD of K4 kissing-loop reporter” value falls from 208 nM to 124 nM (1.7-fold).

same assay, conditions: Eterna round: R107; input ligand: tryptophan 2.4 mM

Compared with “AUGGUUGUCGUAGGAUAUGUAGGAUAUUCUAAAAUAUGAAGUGAUGUUUCUAUAAUAAGAAGAAGGACAGAAGGACGAUAACCAC [FmnBS 1 - SaraBot transfer #DoubleAptamer]”, “AGCUAGUACGCAGGAUAUUGAACAUCAUUUAGUGAGAUCGAGUGAUGUUCGAUCACGACUUCAGUUCGAGAAGGGCGUACUAGCA [#02 K4 FMN B Same State]” is 8-fold higher in “apparent KD of K4 kissing-loop reporter” value: 108 nM for the first, 861 nM for the second.

Compared with “AGUGAUGUGGGAAGGAGCGCUAUAAGACUUCAGUGAUGUUGAAGUGCUGGUUUAGUGUUGUAGCAGGUAGGUCGCCUAGAUGUUA [KL-XARG-B11]”, “UUCCUAUUAUUAACACUAUAUACAACUGAAGGAGCGACAAUAAAGUCAGGUAGGUCGCAGAAUUAAUGAGUGAUGUUCAUUUUUA [JR_ExcArginiA_Sub013]” is 3.6-fold lower in “apparent KD of K4 kissing-loop reporter” value: 218 nM for the first, 60.9 nM for the second.

Going from “GGAUGGUAGGCGGCCGCCACUAAAACUGAACAAAUAUAAACCAGUGAUGUUGGUAUGAUGAAGUAUAGGACCGGGCCUAGAUAGA [Exclusion - Tryptophan B (Freestyle 1)]” to “GGGAGGAAAAUUUUCCUCAAAAGUUGGCUACAGGAUAUCGUGGGAAUGAGAAGGGUAACCGAGACGCCCAGUGAUGUUGGGUGCC [Antegete]”, the “apparent KD of K4 kissing-loop reporter” value rises from 122 nM to 245 nM (2-fold).

Compared with “AAGCAGUCUCUUGUAGUCAUCGAAGAUGAACGAGGACCGGUACGGCCGCCACUCGGAGUGAUGUUCCGAAGGCUGCAAAAUAAAA [MatMod 18 - Jieux - Exclusion - Tryptophan A]”, “AAUUAAUACAGAAGGAGCGUGUUUUUUAAUUUAUUUUCAUGAUCGAGUGAUGUUCGAUAUACACAGGUAGGUCGCUGUAUAUUUA [JR_SSArginiB_Sub008]” is 3.5-fold lower in “apparent KD of K4 kissing-loop reporter” value: 324 nM for the first, 92.1 nM for the second.

First: AUUUGUUUAUGUGAUACCAGACUUUGCAGUGAUGUUGCUUUUAUUUUUGAAUUUUAAAUAGUCCCUUGGCAGCACUAUGUAUUUA [JR_SSTheophyB_Sub009]
Second: GGUGCUGUCUGUGCCGCCCUCCUCGUCCCUCGAGGACCGGUACGGCCGCCACUCGAGUGAUGUUCGGGUAGCCCUCCCUGCCAGC [BDazzled - #21 Exc. Tryptophan A]
The “apparent KD of K4 kissing-loop reporter” value of the first is 8.1-fold lower: 60.6 nM for the first, 492 nM for the second.

“UGAACCCGGUCGGCCGCCACUCUGAGAACCAUCGCCCUACGUGCAGUGAUGUUGUACCUAAUGAGGAGGACCGGGACUGGGCGGC [theeternabot_sameState_KL_Trp_B_36]” and “AGUCUGUAUGACAUAAGUGAUGUUUAUGUUCGAGGACCGGUACGGCCGCCACUCGCAAAUGUAUGAUUUCACGUUUGUGCAAGUA [KL-XTryp-A #analogue]” are within 1.5-fold of each other in “apparent KD of K4 kissing-loop reporter” value: 223 nM for the first, 292 nM for the second.

Going from “AAUGAUGAUUGACACAUUUACUAAAAGGAAGGAGCGGCGAAGUAGCCAGGUAGGUCGCCUUAUAGCAGUGAUGUUGCUAUUUGUU [JR_Nu_ExcArginiA_Sub027]” to “AGUGUACAGUCGGCCGCCACUCACUCCUCCUGCGUUAACGAGUGAUGUUUGUUUUUUAGUGGUACGAGGACCGGGACUUCUCUGA [theeternabot_sameState_KL_Trp_B_35]”, the “apparent KD of K4 kissing-loop reporter” value rises from 76.2 nM to 260 nM (3.4-fold).

Going from “AAACAUCACUGGGAGUGAUGUUCUCAGUGACGAGGACCGGUACGGCCGCCACUCGCGAGAGAUAUAGAUGAGUAAUGACAUCAUU [Excl Tryptophan A V3]” to “AGUGAUGUUGUGUUAUGUUUGGGAAGUGAUCGAGGACCGGUACGGCCGCCACUCGAGUGAUGAGUGAGUGAUGUUUGUUUAGGGA [whbob_SS_Tryp_A_m9]”, the “apparent KD of K4 kissing-loop reporter” value rises from 304 nM to 498 nM (1.6-fold).

Compared with “GGAUCCACCAGUGAUGUUGGAGAAAACUUCAAGGAUAUGACGAAAGUCAGAAGGUGGUAGACUGGGCAAAGUCCGGUCGGAUCCA [FmnA10 U29+G66]”, “UUUUAAAUAUCUGAUACCAGAGAAAAUAUAUGUAGUGAUGUUAUAUACAAAAUAAAUAAGCUCCCUUGGCAGCAGUAUUAAUUUU [AstrosExyTheB#1]” is 2.2-fold higher in “apparent KD of K4 kissing-loop reporter” value: 274 nM for the first, 610 nM for the second.

From the supplement of paper PMC9170038
